Data: patent US20260258115A1 (MAPP BIOPHARMACEUTICAL, published 2026)
Positions count from the first letter of the chain named.

B1: ADI-19460 (antibody, V domains shown)
VH: QVQLQQWGAGLLKPSETLSLTCAVYGGSFSGYYWSWIRQPPGKGLEWIGEINHSGSTNYNPSLKSRVTISVDTSKNQFSLKLSSVTAADTAVYYCARGGITAYYYYYGMDVWGQGTTVTVSS
VL: not shown
notes: full-length IgG
B2: ADI-19457 (antibody, V domains shown)
VH: EVQLLESGGGLVKPGGSLRLSCAASGFTFSSYSMNWVRQAPGKGLEWVSSISSSSSYIYYADSVKGRFTISRDNAKNSLYLQMNSLRAEDTAVYYCARQGYCSGGSCYHIDYWGQGTLVTVSS
VL: QSVVTQPPSVSGAPGQRVTISCTGSSSNIGAGYDVHWYQQLPGTAPKLLIYGNSNRPSGVPDRFSGSKSGTSASLAITGLQAEDEADYYCQSYDSSLSGWVFGGGTKLTVL
notes: full-length IgG
B3: ADI-19467 (antibody, V domains shown)
VH: EVQLVESGGGLVKPGGSLRLSCAASGFTFSSYSMNWVRQAPGKGLEWVSSISSSSSYIYYADSVKGRFTISRDNAKNSLYLQMNSLRAEDTAVYYCASLSSSSELGYYFDYWGQGTLVTVSS
VL: B2 VL with S2P, V4L, W100Y, G104T
notes: full-length IgG
B4: ADI-25472 (antibody, V domains shown)
VH: EVQLVESGGGLVKPGGSLRLSCAASGFTFSSYSMNWVRQAPGKGLEWVSSISSSSSYIYYADSVKGRFTISRDNAKNSLYLQMNSLRAEDTAVYYCARDDSSSWYYFDYWGQGTLVTVSS
VL: B2 VL with V4L, W100Y, G104T, L108V
notes: full-length IgG
B5: ADI-24815 (antibody, V domains shown)
VH: EVQLVESGGGLVKPGGSLRLSCAASGFTFSSYSMNWVRQAPGKGLEWVSSISSSSSYIYYADSVKGRFTISRDNAKNSLYLQMNSLRAEDTAVYYCAREGYSSSSGYYYMDVWGKGTTVTVSS
VL: B2 VL with V4L, W100S, G104T, L108V
notes: full-length IgG
B6: ADI-22771 (antibody, V domains shown)
VH: B4 VH with D100Y, S103G
VL: B2 VL with S2P, V4L, W100S
notes: full-length IgG; also called Ab 350
B7: ADI-24848 (antibody, V domains shown)
VH: B4 VH with D100T, S101V, S102V, S103A, W104G, Y105I
VL: B2 VL with V4L, W100V
notes: full-length IgG
B8: ADI-19465 (antibody, V domains shown)
VH: B4 VH with D99E, D100G
VL: QSVVTQPPSVSGAPGQRVTISCTGSSSNIGAGYDVHWYQQLPGTAPKLLIYGNSNRPSGVPDRFSGSKSGTSASLAITGLQAEDEADYYCQSYDSSLSGPWVFGGGTKLTVL
notes: full-length IgG; also called Ab 170
B9: ADI-24820 (antibody, V domains shown)
VH: QVQLVQSGAEVKKPGSSVKVSCKASGGTFSSYTISWVRQAPGQGLEWMGRIIPILGIANYAQKFQGRVTITADKSTSTAYMELSSLRSEDTAVYYCARDPPYLRAFDIWGQGTTVTVSS
VL: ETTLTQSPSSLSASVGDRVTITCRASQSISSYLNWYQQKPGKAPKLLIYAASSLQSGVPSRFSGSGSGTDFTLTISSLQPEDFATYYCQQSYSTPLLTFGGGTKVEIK
notes: full-length IgG
B10: ADI-19507 (antibody, V domains shown)
VH: EVQLVESGGGLVKPGGSLRLSCAASGFTFSSYSMNWVRQAPGKGLEWVSSISSSSSYIYYADSVKGRFTISRDNAKNSLYLQMNSLRAEDTAVYYCAREVLTGDYLGWFDPWGQGTLVTVSS
VL: QSVVTQPPSVSGAPGQRVTISCTGSSSNIGAGYDVHWYQQLPGTAPKLLIYGNSNRPSGVPDRFSGSKSGTSASLAITGLQAEDEADYYCQSYDSSHWVFGGGTKLTVL
notes: full-length IgG
B11: ADI-19493 (antibody, V domains shown)
VH: QVQLQQWGAGLLKPSETLSLTCAVYGGSFSGYYWSWIRQPPGKGLEWIGEINHSGSTNYNPSLKSRVTISVDTSKNQFSLKLSSVTAADTAVYYCARLIENTRVGEYYFDYWGQGTLVTVSS
VL: not shown
notes: full-length IgG
B12: ADI-24811 (antibody, V domains shown)
VH: QVQLVQSGAEVKKPGASVKVSCKASGYTFTSYDINWVRQATGQGLEWMGWMNPNSGNTGYAQKFQGRVTMTRNTSISTAYMELSSLRSEDTAVYYCARGLPGQWLEYYFDYWGQGTLVTVSS
VL: SYVLTQPPSVSVAPGKTARITCGGNNIGSKSVHWYQQKPGQAPVLVIYYDSDRPSGIPERFSGSNSGNTATLTISRVEAGDEADYYCQVWDSSSDHPVFGGGTKVTVL
notes: full-length IgG
B13: ADI-24840 (antibody, V domains shown)
VH: EVQLLESGGGLVKPGGSLRLSCAASGFTFSSYSMNWVRQAPGKGLEWVSSISSSSSYIYYADSVKGRFTISRDNAKNSLYLQMNSLRAEDTAVYYCARDQVYSYGYYFDYWGQGTLVTVSS
VL: QSVLAQPPSVSGAPGQRVTISCTGSSSNIGAGYDVHWYQQLPGTAPKLLIYGNSNRPSGVPDRFSGSKSGTSASLAITGLQAEDEADYYCQSYDSSLSGSHVVFGGGTKLTVL
notes: full-length IgG
B14: ADI-14366 (antibody, V domains shown)
VH: QVQLVQSGTEVKKPGASVKVSCKASGYTFNMYGVSWVRQAPGQGLEWMGWISAYNGNTNYAQKFQGRVTMTIDTSTTTAYMELRSLRSDDTAMYYCARDFQAEEPLSNWFDPWGQGTLVTVSS
VL: DIVMTQTPSSLSASVGDRVIITCRASQSISRYINWYQKKPGKAPKFLIYAVSSLGSGVPSRFSGSGSGTDFTLTISSLQPEDFATYYCQQSYSTPFTFGPGTKVDIK
notes: full-length IgG; also called Ab 34
B15: ADI-24836 (antibody, V domains shown)
VH: EVQLLESGGGLVQPGRSLRLSCAASGFTFDDYAMHWVRQAPGKGLEWVSGISWNSGSIGYADSVKGRFTISRDNAKNSLYLQMNSLRAEDTALYYCAKDLRGGTYYYYGMDVWGQGTTVTVSS
VL: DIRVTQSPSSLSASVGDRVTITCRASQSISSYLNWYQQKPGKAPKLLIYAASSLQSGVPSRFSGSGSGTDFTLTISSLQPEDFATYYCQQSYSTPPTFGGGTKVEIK
notes: full-length IgG
B16: ADI-14392 (antibody, V domains shown)
VH: EVQLLESGAEVKKPGSSVKVSCKASGGTFSSYGISWVRQAPGQGLEWMGGIIPIFGTSNYAQKFQGRVTITADESTSTAYMELSSLRSEDTAVYYCALDSSGRARYYAMDVWGQGTTVTVSS
VL: DIQVTQSPATLSLSPGERATLSCRASQSVSSYLAWYQQKPGQAPRLLIYDASNRATGIPARFSGSGSGTDFTLTISSLEPEDFAVYYCQQRNNWPPTFGPGTKVEIK
notes: full-length IgG; also called Ab 59
B17: ADI-19454 (antibody, V domains shown)
VH: EVQLLESGGGLVKPGGSLRLSCAASGFTFSSYSMNWVRQAPGKGLEWVSSISSSSSYIYYADSVKGRFTISRDNAKNSLYLQMNSLRAEDTAVYYCARGYCSGGSCYSHYFQHWGQGTLVTVSS
VL: QSVLTQPASVSGSPGQSITISCTGTSSDVGGYNYVSWYQQHPGKAPKLMIYDVSNRPSGVSNRFSGSKSGNTASLTISGLQAEDEADYYCSSYTSSSTVVFGGGTKVTVL
notes: full-length IgG
B18: ADI-24826 (antibody, V domains shown)
VH: B4 VH with D100R, S101G, S102Y, S103G, W104S, Y105G, Y106A, F107L
VL: B17 VL with S2P, V107L
notes: full-length IgG; also called Ab 388
B19: ADI-24833 (antibody, V domains shown)
VH: QVQLVESGGGLVKPGGSLRLSCAASGFTFSSYSMNWVRQAPGKGLEWVSSISSSSSYIYYADSVKGRFTISRDNAKNSLYLQMNSLRAEDTAVYYCARALTYYYDSSGHGADYWGQGTLVTVSS
VL: QSVVTQPPSVSGAPGQRVTISCTGSSSNIGAGYDVHWYQQLPGTAPKLLIYGNSNRPSGVPDRFSGSKSGTSASLAITGLQAEDEADYYCQSYDSSLSVVFGGGTKLTVL
notes: full-length IgG
B20: ADI-24861 (antibody, V domains shown)
VH: QVQLVQSGGGLVKPGGSLRLSCAASGFTFSSYSMNWVRQAPGKGLEWVSSISGGSSYIYYADSVKGRFTISRDNAKNSLYLQMNSLRAEDTAVYYCAREAYYYDSSGLKWFDPWGQGTLVTVSS
VL: B19 VL with V4L, S98G, V99W
notes: full-length IgG
B21: ADI-24855 (antibody, V domains shown)
VH: EVQLVESGGGLVKPGGSLRLSCAASGFTFSSYSMNWVRQAPGKGLEWVSSISSSSSYIYYADSVKGRFTISRDNAKNSLYLQMNSLRAEDTAVYYCARRYCTNGVCYDAFDIWGQGTMVTVSS
VL: B19 VL with V99Y, G103T, L107V
notes: full-length IgG
B22: ADI-24847 (antibody, V domains shown)
VH: EVQLVESGGGLVKPGGSLRLSCAASGFTFSSYSMNWVRQAPGKGLEWVSSISSSSNYIYYADSVKGRFTISRDNAKNSLYLQMNSLRAEDTAVYYCARDRIAAYTFDYWGQGTLVTVSS
VL: B19 VL with S98P, V99Y, G103T, L107V
notes: full-length IgG
B23: ADI-24856 (antibody, V domains shown)
VH: QVQLVQSGAEVKKPGASVKVSCKASGYTFTSYGISWVRQAPGQGLEWMGWISAYNGNTNYAQKLQGRVTMTTDTSTSTAYMELRSLRSDDTAVYYCARAGIVVVPKYYYYMDVWGKGTTVTVSS
VL: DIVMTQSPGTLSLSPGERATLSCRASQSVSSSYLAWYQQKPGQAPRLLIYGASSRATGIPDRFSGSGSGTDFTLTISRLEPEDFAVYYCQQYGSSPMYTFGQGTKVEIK
notes: full-length IgG

The binders below were run against T1, RSV postfusion F (postF), subtype A (respiratory syncytial virus subtype A, UniProt P03420 26-513) (assay: BLI).
T1 construct: also called Postfusion subtype A; F deltaFP
B1: no binding.
B2: no binding.
B3: no binding.
B4: no binding.
B5: no binding.
B6: no binding.
B7: no binding.
B8: no binding.
B9: no binding.
B10: no binding.
B11: no binding.
B12: no binding.
B13: no binding.
B14: no binding.
B15: no binding.
B16: no binding.
B17: no binding.
B18: no binding.
B19: no binding.
B20: no binding.
B21: no binding.
B22: no binding.
B23: no binding.

Each binder was assayed against T2, RSV prefusion F (preF), subtype B (respiratory syncytial virus subtype B) (assay: BLI, IgG).
T2 construct: also called Prefusion subtype B
Work on B1 yielded a Kd of 6.01 nM.
B2 was tested, and the Kd was 16.7 nM.
For B3, the Kd was 37.7 nM.
In the case of B4, the Kd is reported as 37.7 nM.
Binder B5 has a Kd of 29.1 nM.
In the case of B6, the Kd is reported as 9.41 nM.
B7 gave a Kd of 35.6 nM.
B8 gave a Kd of 19.4 nM.
For B9, the Kd was 38.5 nM.
Binder B10 has a Kd of 10.1 nM.
With B11 the Kd was 22.6 nM.
Binder B12 has a Kd of 4.29 nM.
In the case of B13, the Kd is reported as 7.8 nM.
In the case of B14, the Kd is reported as 18 nM.
B15 showed a Kd of 3.44 nM.
Work on B16 yielded a Kd of 72.5 nM.
Work on B17 yielded a Kd of 15.7 nM.
B18 gave a Kd of 9.03 nM.
Work on B19 yielded a Kd of 11.4 nM.
B20 showed a Kd of 0.461 nM.
Work on B21 yielded a Kd of 28 nM.
In the case of B22, the Kd is reported as 40 nM.
B23 gave a Kd of 4.91 nM.
